Reference: paper PMC4694823, “Tumorigenesis by Meis1 overexpression is accompanied by a change of DNA target-sequence specificity which allows binding to the AP-1 element”

Assays:
Meis1;Pbx1 [1] = molecular target: T1, Meis1;Pbx1 (mouse?;mouse?, UniProt Q60954;P41778 1-390;1-308, |); assay: EMSA; binds at lower protein:DNA ratio than AP1; 15 uL reactions with 5% glycerol, 1 ug poly-dIdC, 1.3 uM ds oligo, 12 ug Meis1/Pbx1 or 7 ug Prep1/Pbx1; 30 min on ice; 5-15% native PAGE, GelRed stain; buffer; details: protein: recombinant;recombinant; tags: GST fusion from modified pGEX6p-2rbs; copies: 1;1; blunt
T1 sequence 1: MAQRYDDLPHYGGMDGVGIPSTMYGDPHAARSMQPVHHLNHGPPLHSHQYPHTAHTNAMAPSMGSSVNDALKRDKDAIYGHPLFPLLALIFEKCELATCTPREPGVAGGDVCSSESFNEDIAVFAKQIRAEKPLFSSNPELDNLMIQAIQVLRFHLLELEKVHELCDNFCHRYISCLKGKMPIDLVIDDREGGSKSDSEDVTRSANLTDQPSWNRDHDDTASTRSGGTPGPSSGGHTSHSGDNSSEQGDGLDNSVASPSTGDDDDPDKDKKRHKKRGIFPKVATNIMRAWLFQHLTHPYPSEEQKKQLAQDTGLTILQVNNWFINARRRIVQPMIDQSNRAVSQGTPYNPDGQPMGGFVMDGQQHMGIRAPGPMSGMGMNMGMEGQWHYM
T1 sequence 2: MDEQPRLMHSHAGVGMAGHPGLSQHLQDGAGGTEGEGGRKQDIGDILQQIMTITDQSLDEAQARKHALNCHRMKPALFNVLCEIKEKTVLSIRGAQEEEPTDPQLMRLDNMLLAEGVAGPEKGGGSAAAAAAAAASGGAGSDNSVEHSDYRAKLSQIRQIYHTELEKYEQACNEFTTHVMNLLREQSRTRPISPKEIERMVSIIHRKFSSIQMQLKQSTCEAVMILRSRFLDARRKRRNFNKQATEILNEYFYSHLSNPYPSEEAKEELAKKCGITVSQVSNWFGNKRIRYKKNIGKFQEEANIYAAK

Prep1 (pKnox1);Pbx1 [2] = molecular target: T2, Prep1 (pKnox1);Pbx1 (mouse?;mouse?, UniProt O70477;P41778 1-344;1-308, |); assay: EMSA; binds also at low protein:DNA ratio; AP1 oligo taken as the only printed single AP1 oligo; 15 uL reactions with 5% glycerol, 1 ug poly-dIdC, 1.3 uM ds oligo, 12 ug Meis1/Pbx1 or 7 ug Prep1/Pbx1; 30 min on ice; 5-15% native PAGE, GelRed stain; buffer; details: protein: recombinant;recombinant; tags: GST fusion from modified pGEX6p-2rbs; copies: 1;1; blunt
T2 sequence 1: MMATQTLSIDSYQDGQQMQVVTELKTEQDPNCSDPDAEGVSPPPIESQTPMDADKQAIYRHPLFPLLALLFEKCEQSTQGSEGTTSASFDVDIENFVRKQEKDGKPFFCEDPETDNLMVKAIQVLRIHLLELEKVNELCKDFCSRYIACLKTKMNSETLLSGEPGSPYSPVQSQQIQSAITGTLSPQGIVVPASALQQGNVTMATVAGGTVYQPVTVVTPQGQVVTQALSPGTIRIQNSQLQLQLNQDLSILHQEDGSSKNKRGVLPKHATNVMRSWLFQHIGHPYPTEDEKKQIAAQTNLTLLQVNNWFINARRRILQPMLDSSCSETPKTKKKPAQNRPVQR
T2 sequence 2: T1 sequence 2

c-Fos;c-Jun = c-Fos;c-Jun (;, UniProt P01100;P05412 1-380;1-331, |); assay: EMSA; 15 uL reactions with 5% glycerol, 1 ug poly-dIdC, 1.3 uM ds oligo, 12 ug Meis1/Pbx1 or 7 ug Prep1/Pbx1; 30 min on ice; 5-15% native PAGE, GelRed stain; buffer; details: protein: commercial;commercial; tags: ;; copies: 1;1; blunt
c-Fos;c-Jun, sequence (P01100 whole entry, chain 1 of 2, the tested form may be a part): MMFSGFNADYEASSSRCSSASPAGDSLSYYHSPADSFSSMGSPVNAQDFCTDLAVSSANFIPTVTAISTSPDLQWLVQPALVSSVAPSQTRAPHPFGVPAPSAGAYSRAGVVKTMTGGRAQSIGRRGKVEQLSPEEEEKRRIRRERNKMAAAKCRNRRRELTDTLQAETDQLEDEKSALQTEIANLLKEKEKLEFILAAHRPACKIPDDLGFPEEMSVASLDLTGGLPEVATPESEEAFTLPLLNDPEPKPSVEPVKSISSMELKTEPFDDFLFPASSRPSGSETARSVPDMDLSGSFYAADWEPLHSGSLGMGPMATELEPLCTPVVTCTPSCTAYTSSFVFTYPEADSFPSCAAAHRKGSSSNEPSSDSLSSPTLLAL
c-Fos;c-Jun, sequence (P05412 whole entry, chain 2 of 2, the tested form may be a part): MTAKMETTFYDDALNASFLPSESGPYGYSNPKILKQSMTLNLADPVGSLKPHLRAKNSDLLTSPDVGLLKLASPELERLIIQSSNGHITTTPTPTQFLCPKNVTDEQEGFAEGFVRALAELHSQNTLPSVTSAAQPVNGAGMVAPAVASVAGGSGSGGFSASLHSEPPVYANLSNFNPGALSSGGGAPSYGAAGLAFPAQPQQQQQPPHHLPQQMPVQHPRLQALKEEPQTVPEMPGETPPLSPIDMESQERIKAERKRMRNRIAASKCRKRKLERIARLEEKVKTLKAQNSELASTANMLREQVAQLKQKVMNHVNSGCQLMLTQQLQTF

Meis1;Pbx1 [3] = molecular target: T1, Meis1;Pbx1; assay: EMSA; needs higher protein:DNA ratio than OCTA; 15 uL reactions with 5% glycerol, 1 ug poly-dIdC, 1.3 uM ds oligo, 12 ug Meis1/Pbx1 or 7 ug Prep1/Pbx1; 30 min on ice; 5-15% native PAGE, GelRed stain; buffer; details: protein: recombinant;recombinant; tags: GST fusion from modified pGEX6p-2rbs; copies: 1;1; blunt
Prep1 (pKnox1);Pbx1 [4] = molecular target: T2, Prep1 (pKnox1);Pbx1; assay: EMSA; 15 uL reactions with 5% glycerol, 1 ug poly-dIdC, 1.3 uM ds oligo, 12 ug Meis1/Pbx1 or 7 ug Prep1/Pbx1; 30 min on ice; 5-15% native PAGE, GelRed stain; buffer; details: protein: recombinant;recombinant; tags: GST fusion from modified pGEX6p-2rbs; copies: 1;1; blunt
Meis1;Pbx1 [5] = molecular target: T1, Meis1;Pbx1; assay: as above; details: protein: recombinant;recombinant; tags: GST fusion from modified pGEX6p-2rbs; copies: 1;1; blunt

B1: OCTA (dsDNA)
DNA 1: GAAAGTGATAAATAATACAAGGAAAGC
DNA 2: GCTTTCCTTGTATTATTTATCACTTTC
binding result (Meis1;Pbx1 [1]): binds

B2: AP1 (dsDNA)
DNA 1: CATTACCATGAGTCATTGGGCTTGCTC
DNA 2: GAGCAAGCCCAATGACTCATGGTAATG
binding result (Prep1 (pKnox1);Pbx1 [2]): binds | binding result (c-Fos;c-Jun): binds | binding result (Meis1;Pbx1 [3]): binds

B3: AP1+DECA (dsDNA)
DNA 1: TAAAATGCTGAGTCACTGACTGACAGCTTTAGGCT
DNA 2: AGCCTAAAGCTGTCAGTCAGTGACTCAGCATTTTA
binding result (Prep1 (pKnox1);Pbx1 [4]): binds

B4: OCTA+AP1 (dsDNA)
DNA 1: ATTATAGTGATGAATCATCATGACTCATGGTCCAG
DNA 2: CTGGACCATGAGTCATGATGATTCATCACTATAAT
binding result (Meis1;Pbx1 [5]): binds

B5: DECA (dsDNA)
DNA 1: AGCTGACCTCTGAGTGACAGGGTGGAATGTGA
DNA 2: TCACATTCCACCCTGTCACTCAGAGGTCAGCT
binding result (Prep1 (pKnox1);Pbx1 [4]): binds
